Data taken from patent publication US20240400717A1 (NATIONAL CHENG KUNG UNIVERSITY, published 2024).
Where two headings read alike, the source gives them in different places.

Columns and labels:
[1] = target: T1, human CHI3L1 extracellular domain fused with flag and His tag recombinant protein (human, UniProt P36222 22-383); assay: BLI (ForteBio Octet), mAb captured on AHC sensor, hCHI3L1/flag-His as analyte
T1 construct: extracellular domain; also called hCHI3L1/flag-His; hCHI3L1; not shown: flag and His tag
T1 sequence (P36222 22-383 limits assumed): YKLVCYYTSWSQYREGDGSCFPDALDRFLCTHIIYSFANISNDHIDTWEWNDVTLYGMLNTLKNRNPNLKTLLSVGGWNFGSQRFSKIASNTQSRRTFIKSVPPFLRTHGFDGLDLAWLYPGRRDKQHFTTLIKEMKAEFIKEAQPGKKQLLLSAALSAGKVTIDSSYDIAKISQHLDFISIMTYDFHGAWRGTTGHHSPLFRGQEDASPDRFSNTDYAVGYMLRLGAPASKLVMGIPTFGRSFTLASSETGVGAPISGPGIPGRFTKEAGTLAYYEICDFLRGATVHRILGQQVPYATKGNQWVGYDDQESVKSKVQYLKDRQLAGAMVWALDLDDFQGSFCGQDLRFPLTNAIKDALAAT

CHI3L2 [2] = target: T2, CHI3L2 (human, UniProt Q15782 27-390, limits assumed); assay: ELISA: coated recombinant protein titrated 2.50 to 0.00 µg/ml, antibody at 1 µg/ml, OD450
T2 construct: The sentence reads 'human chitotriosidase-1 (CHIT1) and CHI3L2'
T2 sequence (looked up): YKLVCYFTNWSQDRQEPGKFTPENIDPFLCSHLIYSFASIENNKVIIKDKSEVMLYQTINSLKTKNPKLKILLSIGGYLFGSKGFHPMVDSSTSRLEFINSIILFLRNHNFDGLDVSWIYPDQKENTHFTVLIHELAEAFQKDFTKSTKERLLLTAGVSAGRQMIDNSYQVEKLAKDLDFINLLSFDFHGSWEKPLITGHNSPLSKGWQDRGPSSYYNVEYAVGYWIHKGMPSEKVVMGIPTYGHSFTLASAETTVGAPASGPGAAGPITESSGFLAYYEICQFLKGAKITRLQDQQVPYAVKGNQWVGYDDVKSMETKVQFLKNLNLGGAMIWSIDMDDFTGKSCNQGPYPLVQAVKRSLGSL

[3] = target: T3, human chitotriosidase-1 (CHIT1) (human, UniProt Q13231 22-466, limits assumed); assay: as above
T3 sequence (Q13231 22-466 limits assumed): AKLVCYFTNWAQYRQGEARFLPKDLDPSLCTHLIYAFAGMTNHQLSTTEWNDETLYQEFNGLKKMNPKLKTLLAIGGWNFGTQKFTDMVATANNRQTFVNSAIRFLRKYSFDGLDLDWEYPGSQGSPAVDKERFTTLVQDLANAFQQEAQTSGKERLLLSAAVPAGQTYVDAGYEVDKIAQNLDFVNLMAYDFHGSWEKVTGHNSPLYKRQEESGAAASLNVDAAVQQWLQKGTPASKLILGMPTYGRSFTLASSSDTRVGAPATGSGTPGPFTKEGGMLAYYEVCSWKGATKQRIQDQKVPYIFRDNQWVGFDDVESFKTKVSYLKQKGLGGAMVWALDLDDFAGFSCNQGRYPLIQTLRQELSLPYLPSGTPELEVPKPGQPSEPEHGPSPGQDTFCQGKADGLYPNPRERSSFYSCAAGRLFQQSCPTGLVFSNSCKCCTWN

recombinant human CHI3L1 [4] = target: T4, recombinant human CHI3L1 (human, UniProt P36222 22-383); assay: as above
T4 construct: also called rCHI3L1; human rCHI3L1
T4 sequence (P36222 22-383 limits assumed): as the sequence (P36222 22-383 limits assumed) above

recombinant human CHI3L1 [5] = target: T4, recombinant human CHI3L1; assay: ELISA: coated human rCHI3L1 titrated 2.5 to 0 µg/ml, antibody concentration not given, OD450
mouse rCHI3L1 [6] = target: T5, mouse rCHI3L1 (mouse, UniProt Q61362 30-389, limits assumed); assay: phage ELISA (4th round single clone screening): coated protein, rescued phage supernatant, anti-M13-HRP, OD450
T5 construct: also called mouse CHI3L1; murine CHI3L1
T5 sequence (Q61362 30-389 limits assumed): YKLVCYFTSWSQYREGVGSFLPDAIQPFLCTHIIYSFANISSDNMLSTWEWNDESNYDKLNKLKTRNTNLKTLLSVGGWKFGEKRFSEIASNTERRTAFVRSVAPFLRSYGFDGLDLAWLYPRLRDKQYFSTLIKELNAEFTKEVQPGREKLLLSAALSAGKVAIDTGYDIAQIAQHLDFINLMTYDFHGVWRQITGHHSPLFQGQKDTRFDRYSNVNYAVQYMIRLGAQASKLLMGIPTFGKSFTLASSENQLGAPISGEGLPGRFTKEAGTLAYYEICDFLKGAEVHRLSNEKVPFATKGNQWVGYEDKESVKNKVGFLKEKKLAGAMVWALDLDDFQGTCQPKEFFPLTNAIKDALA

recombinant human CHI3L1 [7] = target: T4, recombinant human CHI3L1; assay: as above
mouse rCHI3L1 [8] = target: T5, mouse rCHI3L1; assay: as above; remark: listed apart in the source
recombinant human CHI3L1 [9] = target: T4, recombinant human CHI3L1; assay: as above; remark: listed apart in the source
CHI3L2 [10] = target: T2, CHI3L2; assay: ELISA: coated recombinant protein titrated 2.50 to 0.00 µg/ml, antibody at 1 µg/ml, OD450; remark: listed apart in the source
[11] = target: T3, human chitotriosidase-1 (CHIT1); assay: as above; remark: listed apart in the source
recombinant human CHI3L1 [12] = target: T4, recombinant human CHI3L1; assay: as above; remark: listed apart in the source
CHI3L2 [13] = target: T2, CHI3L2; assay: as above; remark: listed apart in the source
[14] = target: T3, human chitotriosidase-1 (CHIT1); assay: as above; remark: listed apart in the source
recombinant human CHI3L1 [15] = target: T4, recombinant human CHI3L1; assay: as above; remark: listed apart in the source
mouse rCHI3L1 [16] = target: T5, mouse rCHI3L1; assay: phage ELISA (3rd round single clone screening): coated protein, rescued phage supernatant, anti-M13-HRP, OD450
CHI3L2 [17] = target: T2, CHI3L2; assay: ELISA: coated recombinant protein titrated 2.50 to 0.00 µg/ml, antibody at 1 µg/ml, OD450; remark: listed apart in the source
[18] = target: T3, human chitotriosidase-1 (CHIT1); assay: as above; remark: listed apart in the source
recombinant human CHI3L1 [19] = target: T4, recombinant human CHI3L1; assay: as above; remark: listed apart in the source
mouse rCHI3L1 [20] = target: T5, mouse rCHI3L1; assay: ELISA: coated mouse rCHI3L1 titrated 2.5 to 0 µg/ml, antibody concentration not given, OD450

Binder	Kd [1] [nM]	koff [1] [s⁻¹]	kon [1] [M⁻¹ s⁻¹]	binding result (mouse rCHI3L1 [6])	binding result (mouse rCHI3L1 [8])	binding result (recombinant human CHI3L1 [9])	other results
anti-CHI3L1 clone R4-4 (antibody, V domains shown, also called #hu R4-4; mAb clone R4-4) VH: EVQLLESGGGLLQPGGSLRLSCAASGLTFRNYAMTWVRQAPGKGLEWVSTISGNGDETFYADSVKGHFTISRDNSKDTVYLQMNSLRAEDTAVYYCAKGGHYSFFDSWGQGSPVTVSS VL: NFMLTQPHSVSESPGKTVTISCTRSSGSIASNYVQWYQQRPGSSPTTVIYEDNQRPSGVPDRFSGSIDSSSNSASLTISGLKTEDEADYYCQSYDSSNYVFGTGTKVTVLG	1.13	0.000353	313000	binds			binding result (CHI3L2 [2]): no binding; binding result [3]: no binding; EC50 (read off the curve) (recombinant human CHI3L1 [4]): ~0.5 µg/mL; EC50 (read off the curve) (recombinant human CHI3L1 [5]): ~0.6 µg/mL
anti-CHI3L1 clone R4-39 (antibody, human IgG1, V domains shown, also called #hu R4-39) VH: EVQLVQSGAEVRKPGESLKISCKASGYRFTNYWIGWVRQMPGKGLEWMGIIYPDDSNTKYSPSFQGQVTISVDKPITTAYLQWSSLKASDTAMYYCVRLDTYYYDSSGFPFDAFDIWGQGTMVTVSS VL: DIQMTQSPSSLSAFVGDRVTITCQASQDISTFLSWYQQKPGKAPKLLIYDATNLETGVPSRFSGRGSGTDFTFTISSLQPEDVATYFCQQYDFLPLSFGGGTKVEIRR				no binding			binding result (recombinant human CHI3L1 [7]): binds
anti-CHI3L1 clone R4-53 (antibody, human IgG1, V domains shown, also called #hu R4-53) VH: QVQLVQSGAEVKKPGASVKVSCKASGYTFTSYYMHWVRQAPGQGLEWMGIINPSGGSTSYAQKFQGRVTMTRDTSTSTVYMELSSLRSEDTAVYYCASDIGDYGDYWGQGTTVTVSS VL: SYVLTQPPSVSVALGQTARITCGGNNIESKIVSWYQQKPGQAPVLVIFYDTDRPSGISERFSGSNSGNTATLTISRVEAGDEADYYCQVWDSNSDHVIFGGGTKLTVLG					no binding	binds	
anti-CHI3L1 clone R4-62 (antibody, human IgG1, V domains shown, also called #hu R4-62) VH: EVQLVESGGGLVQPGGSLRLSCAASGLTFPNFAMTWVRQTPGKGLQWVSTISGRGDEPFYADSVKGRFTISRDNSKNMVYLHMNSLRAEDTAIYYCAKGGHFSSWDYWGQGTLVTVSS VL: NFMLTQPHSVSESPGKTVTISCTRSSGSIASNYVQWYQQRPDSAPTTVIYEDIERPSGVPDRFSGAIDSSANSASLTISGLQTEDEADYYCQSYDSSSYVFGTGTKVTVLG						binds	
anti-CHI3L1 clone R4-54 (antibody, human IgG1, V domains shown, also called #hu R4-54; mAb clone R4-54) VH: QVQLVESGGGVVQPGRSLRLSCAASGFTFSSYGMHWVRQAPGKGLEWVAVISYDGSDKDYADSVKGRFTISRDNSKNTLFLQMNSLRAEDTAVYYCARDDYDSTYYFDNWGQGTTVTVSS VL: SYELTQPPSVSVSPGQTASITCSGDILADQYASWYQQKPGQSPVLVIYHDTKRPSGVPERFSGSTSGNTATLTISGTQAMDEAAYYCQAWDINTAWVFGGGTQLTVLG	4.22	0.0065	1.54e+06		no binding		binding result (CHI3L2 [10]): no binding; binding result [11]: no binding; EC50 (read off the curve) (recombinant human CHI3L1 [12]): ~0.8 µg/mL
anti-CHI3L1 clone 293R3-2 (antibody, human IgG1, V domains shown, also called #hu 293R3-2; CHI3L1 293R3-2) VH: QVQLQESGPGLVEPSGTLSLTCAVSGGSISSSNWWSWVRQHPGKGLEWIGEIYHSGSTNYNPSLRSRVTISVDKSKNQFSLELSSVTAADTAVYYCAGDQRMEDDAFDIWGQGTMVTVSS VL: QSALTQPASVSGSPGQSITISCTGTSSDVGGYNYVSWYQQHPGKAPKLMIYDVSNRPSGVSNRFSGSKSGNTASLTISGLQAEDEADYYCSSYTSSSTLYVFGTGTKVTVLG	2.79	0.00302	1.08e+06				binding result (CHI3L2 [13]): no binding; binding result [14]: no binding; EC50 (read off the curve) (recombinant human CHI3L1 [15]): ~0.8 µg/mL; binding result (mouse rCHI3L1 [16]): no binding
anti-CHI3L1 clone 293R3-4 (antibody, human IgG1, V domains shown, also called #hu 293R3-4; CHI3L1 293R3-4) VH: EVQLVQSGAEVKKPGATVKISCKVSGYSFTDYYIHWVQQAPGKGLEWMGFVDPENGETIYAEKFQGRVTITADTSTDTAYMELSSLRSDDTAVYYCATDRDYDDSSGNAFDIWGQGTMVTVSS VL: SYELTQPPSVSVSTGQTATITCSGDILGDEYAFWYQQKAGQSPVLVIYLDTRRPSGIPERFSGSNSGDTATLTISETQPVDEAVYFCQGWDSSTALYVFGTGTKVTVLG	3.94	0.00722	1.83e+06				binding result (CHI3L2 [17]): no binding; binding result [18]: no binding; EC50 (read off the curve) (recombinant human CHI3L1 [19]): ~0.8 µg/mL; binding result (mouse rCHI3L1 [20]): no binding (tested: 2.5 µg/ml coated protein)

Now from value to binder, other results behind:

Kd [1] [nM]	koff [1] [s⁻¹]	kon [1] [M⁻¹ s⁻¹]	binding result (mouse rCHI3L1 [6])	binding result (mouse rCHI3L1 [8])	binding result (recombinant human CHI3L1 [9])	Binder	other results
				no binding	binds	anti-CHI3L1 clone R4-63 (antibody, human IgG1, V domains shown, also called #hu R4-63) VH: EVQLVQSGAEVKKPGATVKISCKVSGYTFTDYYMHWVQQAPGKGLEWMGLVDPEDGETIYAEKFQGRVTITADTSTDTAYMELSSLRSEDTAVYYCATIGRPPDYWGQGTTVTVSS VL: QSVLTQPPSVSAAPGQKVTISCSGSSSNIGNNYVSWYQQLPGTAPKLLIYDNNKRPSGIPDRFSGSKSGTSATLGITGLQTGDEADYYCGTWDSSLSVWVFGGGTKLTVLG	
				no binding	binds	anti-CHI3L1 clone R4-93 (antibody, human IgG1, V domains shown, also called #hu R4-93) VH: not shown VL: NFMLTQPHSVSESPGKTVIISCTRSSGSIAHNYVQWYQLRPGSAPTTVISDDDQRPSGVPDRFSGSIDSSSNSASLTISGLRTEDEADYYCQSFDDSNWVFGGGTRLTVLG	
			no binding			anti-CHI3L1 clone R4-2 (antibody, human IgG1, V domains shown, also called #hu R4-2) VH: QVQLVQSGAEVKKPGSSVKVSCKASGGTFSSYAISWVRQAPGQGLEWMGGIIPIFGTANYAQKFQGRVTITADESTSTAYMELSSLRSEDTAVYYCARGDIEYYDILTGYYYYFDYWGQGTLVTVSS VL: SYVLTQPPSVSVAPGKAARVTCGGNDIGSKSVQWYQQKPGQAPVLVISYDNDRPSGIPERFSGSNSGNTATLTISRVEAGDEADYYCQVWDSTSDHYVFGTGTKVTVQG	binding result (recombinant human CHI3L1 [7]): binds
